Substrate in this series: N[C@@H](CS)C(=O)O
In words: purified protein. Format: biochemical, Salmonella enterica. The note with it: 2 mM ATP, 2 mM PPi, 10 mM MgCl2, 30 mM KCl, 100 mM HEPES pH 7.5, 37 °C, 25 nM enzyme, 50 μM-2 mM Cys.

B1: CysRS^chr (Salmonella enterica subsp. enterica serovar Typhimurium str. LT2) (protein)
chain: MLKIFNTLTRQKEEFKPIHAGEVGMYVCGITVYDLCHIGHGRTFVAFDVVARYLRFLGYKLKYVRNITDIDDKIIKRANENGESFVALVDRMIAEMHQDFDALNILRPDSEPRATHHIQEIIELTRTLIEKGHAYVADNGDVMFDVPTDPTYGQLSRQDLEQLQAGARVDVVDVKRNPMDFVLWKMSKEGEPSWPSPWGEGRPGWHIECSAMNCKQLGNHFDIHGGGSDLMFPHHENEIAQSTCAHDGEYVNYWMHSGMVMVDREKMSKSLGNFFTVRDVLKYYDAETVRYFLMSGHYRSQLNYSEENLKQARASLERLYTALRGTDKSAAPAGGEAFEARFVEAMNDDFNTPEAYSVLFDMAREVNRLKGEDMTAANAMASHLRKISGVLGLLEQEPDVFLQSGAQADDGEVAEIEALIQQRLDARKAKDWAAADAARDRLAEMGIILEDGPQGTTWRRK
notes: tag removal not mentioned
For B1, the Km – broadly, the concentration of substrate that gives half-maximal velocity – was determined as 14 ± 3 µM; the catalytic constant (kcat) (commonly the number of substrate molecules converted per active site and unit of time at saturation) came to 1.1 ± 0.2 s⁻¹.

The values above are taken from PMC6785131.
